For this data set, the target named is T1, LbuCas13a (Leptotrichia buwadei? (printed only as …, UniProt C7NBY4 1-1159)).
T1 sequence: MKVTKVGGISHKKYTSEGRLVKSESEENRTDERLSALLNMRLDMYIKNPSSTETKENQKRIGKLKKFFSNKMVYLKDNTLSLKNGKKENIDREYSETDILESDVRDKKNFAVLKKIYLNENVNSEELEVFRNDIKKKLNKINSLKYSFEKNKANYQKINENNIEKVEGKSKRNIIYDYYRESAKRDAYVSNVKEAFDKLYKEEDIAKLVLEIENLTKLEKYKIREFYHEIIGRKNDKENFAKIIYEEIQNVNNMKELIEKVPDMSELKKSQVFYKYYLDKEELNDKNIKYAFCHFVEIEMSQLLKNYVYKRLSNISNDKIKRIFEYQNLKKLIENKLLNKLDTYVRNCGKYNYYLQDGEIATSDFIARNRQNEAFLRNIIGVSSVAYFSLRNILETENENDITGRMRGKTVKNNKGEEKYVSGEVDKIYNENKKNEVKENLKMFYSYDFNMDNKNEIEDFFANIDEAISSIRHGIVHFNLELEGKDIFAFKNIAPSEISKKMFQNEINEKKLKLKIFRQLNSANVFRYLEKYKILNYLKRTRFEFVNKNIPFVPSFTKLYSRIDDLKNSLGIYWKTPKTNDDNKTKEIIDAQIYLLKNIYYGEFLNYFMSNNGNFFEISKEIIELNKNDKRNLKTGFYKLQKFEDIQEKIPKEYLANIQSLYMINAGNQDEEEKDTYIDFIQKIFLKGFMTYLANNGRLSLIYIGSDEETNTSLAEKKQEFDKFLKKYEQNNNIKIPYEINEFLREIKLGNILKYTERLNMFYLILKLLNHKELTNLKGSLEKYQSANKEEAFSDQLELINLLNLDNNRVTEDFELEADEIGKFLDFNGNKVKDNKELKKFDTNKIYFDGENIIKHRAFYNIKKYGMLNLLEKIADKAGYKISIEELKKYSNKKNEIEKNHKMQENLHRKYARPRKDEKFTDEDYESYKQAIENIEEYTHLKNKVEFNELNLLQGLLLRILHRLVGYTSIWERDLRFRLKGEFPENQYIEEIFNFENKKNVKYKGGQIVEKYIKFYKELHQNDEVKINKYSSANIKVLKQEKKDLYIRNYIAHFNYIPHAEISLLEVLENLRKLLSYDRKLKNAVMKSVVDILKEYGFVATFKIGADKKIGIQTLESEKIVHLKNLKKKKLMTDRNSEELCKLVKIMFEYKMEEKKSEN
Nature of the data set: competition.

B1: Cas13a crRNA with scrambled ssDNA, unlabelled competitor (mixed)
RNA: GAUUUAGACCACCCCAAAAAUGAAGGGGACUAAAACUGGGUGUUUGACAAGUUGUAUUGCAAUC
DNA: TCCACATCATCACTATTAACAAGGAACACTCCGAGGGT
Consider B1, for which the binding result is “no binding”.

The values are drawn from publication PMC11470125.
